The results in this text go back to patent US20230081720A1, “MCL-1 INHIBITOR ANTIBODY-DRUG CONJUGATES AND METHODS OF USE” (NOVARTIS AG, priority 2019, published 2023).

Read-outs that look alike come from different tables or passages of the source.

One assay concerns EOL-1. In kind it is cell-based. As for the experimental part: (§1) Cell lines were cultured in media that is optimal for their growth at 5% CO2, 37° C. in a tissue culture incubator. Prior to seeding for the proliferation assay, the cells were split at least 2 days before the assay to ensure optimal growth density. […] Cell viability and cell density were determined using a cell counter (Vi-Cell XR Cell Viability Analyzer, Beckman Coulter). […] Cells were seeded at a density of 1,000 cells per well in 45 μL of standard growth media. Plates were incubated at 5% CO2, 37° C. overnight in a tissue culture incubator. […] Each drug concentration was tested in quadruplets. […] Plates were incubated at room temperature for 10 minutes to stabilize luminescent signals prior to reading using a luminescence reader (EnVision Multilabel Plate Reader, PerkinElmer). To evaluate the effect of the drug treatments, luminescent counts from wells containing untreated cells (100% viability) were used to normalize treated samples.

The next assay deals with MONO-MAC-1. In kind it is cell-based. To be noted: CD74 ADC with the named linker-payload, 5 days. The method, then:
as §1

Another assay concerns NOMO-1. In kind it is cell-based. The method, then: as §1
Another assay deals with soluble cyno CD74 (cyno). Briefly: SPR, Biacore 8K; IgG captured by anti-IgG Fc, soluble CD74 as analyte; 1:1 model, apparent kinetics. (Surface plasmon resonance follows binding to a sensor surface in real time, without labels.)
The target in the next assay is T1, soluble human CD74 (human, UniProt P04233-2 73-232, limits assumed).
T1 construct: CD74' flowed over as analyte; also called human CD74 protein
T1 sequence (looked up): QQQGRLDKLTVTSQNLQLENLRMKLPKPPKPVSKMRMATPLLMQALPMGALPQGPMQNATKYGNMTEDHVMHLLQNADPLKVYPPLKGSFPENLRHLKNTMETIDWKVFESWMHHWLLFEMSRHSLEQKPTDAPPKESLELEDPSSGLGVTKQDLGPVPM
The description is as above. From the text: Double reference subtraction was completed to generate the final data.

Setting [1] is: CD74 ADC with the named linker-payload, 5 days.

Chain of soluble cyno CD74 (cyno) (P04233 other isoform, or with tags, fused parts or gaps): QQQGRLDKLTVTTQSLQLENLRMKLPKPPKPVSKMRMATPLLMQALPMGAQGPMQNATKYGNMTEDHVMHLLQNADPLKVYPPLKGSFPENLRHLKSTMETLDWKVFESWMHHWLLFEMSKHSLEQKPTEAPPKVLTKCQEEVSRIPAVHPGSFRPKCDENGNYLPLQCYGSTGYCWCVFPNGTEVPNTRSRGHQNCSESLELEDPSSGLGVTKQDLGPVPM

In general, IC50 refers to the concentration that gives 50% inhibition. Regarding `COCCOCCOCCOCCOCCOCCOCCOCCOCCOCCOCCOCCOCCOCCOCCOCCOCCOCCOCCOCCOCCOCCOCCOCCn1cc(COCc2cc(NC(=O)[C@H](CCCNC(N)=O)NC(=O)[C@@H](NC(=O)CCOCCN3C(=O)C=CC3=O)C(C)C)ccc2C[N+]2(C)CCN(CCOc3ccc(-c4c(-c5ccc(F)cc5)sc5ncnc(O[C@H](Cc6ccccc6OCc6ccnc(-c7ccccc7OC)n6)C(=O)O)c45)c(C)c3Cl)CC2)nn1` [L5-P1], the IC50 in the assay with EOL-1 turned out to be 1.02 nM; with MONO-MAC-1, 7.95 nM; with NOMO-1, 2.22 nM. In addition, the “EOL-1 Amax” value with EOL-1 (setting [1]) amounted to 75.06. Also, the “MONO-MAC-1 Amax” value in the assay with MONO-MAC-1 stood at 84.9. For the same molecule, the “NOMO-1 Amax” value in the assay on NOMO-1 (setting [1]) was determined as 55.58.

For the molecule `COCCOCCOCCOCCOCCOCCOCCOCCOCCOCCOCCOCCOCCOCCOCCOCCOCCOCCOCCOCCOCCOCCOCCOCCC(=O)N(C)Cc1cc(NC(=O)[C@H](CCCNC(N)=O)NC(=O)[C@@H](NC(=O)CCOCCN2C(=O)C=CC2=O)C(C)C)ccc1C[N+]1(C)CCN(CCOc2ccc(-c3c(-c4ccc(F)cc4)sc4ncnc(O[C@H](Cc5ccccc5OCc5ccnc(-c6ccccc6OC)n5)C(=O)O)c34)c(C)c2Cl)CC1` [L30-P1], the half-maximal inhibitory concentration (IC50) with EOL-1 was 0.251 nM; in the assay with MONO-MAC-1, 5.45 nM; in the assay with NOMO-1, 1.62 nM. Moreover, the “EOL-1 Amax” value in the assay on EOL-1 (setting [1]) came to 197.6. Moreover, the “MONO-MAC-1 Amax” value in the assay on MONO-MAC-1 was found to be 86.78. For the same molecule, the “NOMO-1 Amax” value in the assay on NOMO-1 (setting [1]) was determined as 78.95.

For the molecule `COCCOCCOCCOCCOCCOCCOCCOCCOCCOCCOCCOCCOCCOCCOCCOCCC(=O)N(C)Cc1cc(NC(=O)[C@H](CCCNC(N)=O)NC(=O)[C@@H](NC(=O)CCOCCN2C(=O)C=CC2=O)C(C)C)ccc1C[N+]1(C)CCN(CCOc2ccc(-c3c(-c4ccc(F)cc4)sc4ncnc(O[C@H](Cc5ccccc5OCc5ccnc(-c6ccccc6OC)n5)C(=O)O)c34)c(C)c2Cl)CC1` [L31-P1], the half-maximal inhibitory concentration (IC50) with EOL-1 turned out to be 0.466 nM; with MONO-MAC-1 it was 3.96 nM; with NOMO-1, 1.2 nM. Also, the “EOL-1 Amax” value with EOL-1 (setting [1]) was determined as 83.98. The “MONO-MAC-1 Amax” value in the assay on MONO-MAC-1 was 110.3. For the same molecule, the “NOMO-1 Amax” value in the assay on NOMO-1 (setting [1]) came out at 73.4.

On to `COCCOCCOCCOCCOCCOCCOCCOCCOCCOCCOCCOCCC(=O)N(C)Cc1cc(NC(=O)[C@H](CCCNC(N)=O)NC(=O)[C@@H](NC(=O)CCOCCN2C(=O)C=CC2=O)C(C)C)ccc1C[N+]1(C)CCN(CCOc2ccc(-c3c(-c4ccc(F)cc4)sc4ncnc(O[C@H](Cc5ccccc5OCc5ccnc(-c6ccccc6OC)n5)C(=O)O)c34)c(C)c2Cl)CC1` [L32-P1], for which the “EOL-1 Amax” value in the assay with EOL-1 (setting [1]) was 125. The concentration for half-maximal inhibition (IC50) in the assay with EOL-1 (CD74 ADC with the named linker-payload, 5 days, read-out: EOL-1 IC50) was found to be 0.16 nM; in the assay on MONO-MAC-1, 6.72 nM; in the assay with NOMO-1 (CD74 ADC with the named linker-payload, 5 days, read-out: NOMO-1 IC50) it was 1.5 nM. For the same molecule, in the assay with MONO-MAC-1, the “MONO-MAC-1 Amax” value was 97.57. In addition, the “NOMO-1 Amax” value in the assay on NOMO-1 (setting [1]) is listed as 62.58.

On to `COc1ccccc1-c1nccc(COc2ccccc2C[C@@H](Oc2ncnc3sc(-c4ccc(F)cc4)c(-c4ccc(OCCN5CC[N+](C)(Cc6ccc(NC(=O)[C@H](CCCNC(N)=O)NC(=O)[C@@H](NC(=O)CCOCCN7C(=O)C=CC7=O)C(C)C)cc6COCc6cn(CCOCCOCCOCCOCCOCCOCCOCCOCCOCCOCCOCCOCCC(=O)O)nn6)CC5)c(Cl)c4C)c23)C(=O)O)n1` [L33-P1], for which the IC50 was determined as 0.62 nM in the assay with EOL-1, 6.72 nM in the assay with MONO-MAC-1 and 2.58 nM in the assay with NOMO-1. The “EOL-1 Amax” value in the assay with EOL-1 (setting [1]) is listed as 66.96. In the assay with MONO-MAC-1, the “MONO-MAC-1 Amax” value turned out to be 89.18. For the same molecule, in the assay with NOMO-1 (setting [1]), the “NOMO-1 Amax” value stood at 58.95.

B1: milatuzumab (antibody, V domains shown)
VH: QVQLQQSGSELKKPGASVKVSCKASGYTFTNYGVNWIKQAPGQGLQWMGWINPNTGEPTFDDDFKGRFAFSLDTSVSTAYLQISSLKADDTAVYFCSRSRGKNEAWFAYWGQGTLVTVSS
VL: DIQLTQSPLSLPVTLGQPASISCRSSQSLVHRNGNTYLHWFQQRPGQSPRLLIYTVSNRFSGVPDRFSGSGSGTDFTLKISRVEAEDVGVYFCSQSSHVPPTFGAGTRLEIK
notes: also called hLL1; WT IgG
For orientation: koff means a measure of how fast the partners let go of each other. In general, kon refers to the second-order rate constant of association. Take B1: in the assay with soluble cyno CD74 (cyno), the Kd came out at 16 nM, the koff was determined as 0.00088 s⁻¹ and the kon stood at 56000 M⁻¹ s⁻¹. Moreover, in the assay with soluble human CD74, the Kd was 4.9 nM, the off-rate constant (koff) turned out to be 0.00051 s⁻¹ and the kon stood at 100000 M⁻¹ s⁻¹.

B2: VHmil x VK1bNQ (antibody, V domains shown)
VH: QVQLQQSGSELKKPGASVKVSCKASGYTFTNYGVNWIKQAPGQGLQWMGWINPNTGEPTFDDDFKGRFAFSLDTSVSTAYLQISSLKADDTAVYFCSRSRGKNEAWFAYWGQGTLVTVSS
VL: DVVMTQSPLSLPVTLGQPASISCRSSQSLVHRNQNTYLHWYQQRPGQSPRLLIYTVSNRFSGVPDRFSGSGSGTDFTLKISRVEAEDVGVYFCSQSSHVPPTFGQGTKLEIK
notes: Tested as IgG; also called VHmil × VK1bNQ; hLL1 heavy chain with hzLL1-Vk1b (NQ) light chain
For the molecule B2, in the assay with soluble cyno CD74 (cyno), the Kd is 5.3 nM, the dissociation rate constant (koff) amounted to 0.00058 s⁻¹ and the kon came out at 110000 M⁻¹ s⁻¹. For the same molecule, in the assay with soluble human CD74, the Kd stood at 0.76 nM, the off-rate (koff) is 0.00016 s⁻¹ and the kon came to 220000 M⁻¹ s⁻¹.

B3: VHmil x VK1aNQ (antibody, V domains shown)
VH: QVQLQQSGSELKKPGASVKVSCKASGYTFTNYGVNWIKQAPGQGLQWMGWINPNTGEPTFDDDFKGRFAFSLDTSVSTAYLQISSLKADDTAVYFCSRSRGKNEAWFAYWGQGTLVTVSS
VL: DIVMTQTPLSLPVTPGEPASISCRSSQSLVHRNQNTYLHWYLQKPGQSPQLLIYTVSNRFSGVPDRFSGSGSGTDFTLKISRVEAEDVGVYFCSQSSHVPPTFGQGTKLEIK
notes: Tested as IgG; also called VHmil × VK1aNQ; hLL1 heavy chain with hzLL1-Vk1a (NQ) light chain
With B3, in the assay with soluble cyno CD74 (cyno), the Kd turned out to be 5.9 nM, the koff is 0.00062 s⁻¹ and the kon came to 100000 M⁻¹ s⁻¹. Also, in the assay with soluble human CD74, the Kd is 0.91 nM, the koff turned out to be 0.00018 s⁻¹ and the kon stood at 200000 M⁻¹ s⁻¹.

B4: Mil_HCx hzVk1a (antibody, V domains shown)
VH: QVQLQQSGSELKKPGASVKVSCKASGYTFTNYGVNWIKQAPGQGLQWMGWINPNTGEPTFDDDFKGRFAFSLDTSVSTAYLQISSLKADDTAVYFCSRSRGKNEAWFAYWGQGTLVTVSS
VL: DIVMTQTPLSLPVTPGEPASISCRSSQSLVHRNGNTYLHWYLQKPGQSPQLLIYTVSNRFSGVPDRFSGSGSGTDFTLKISRVEAEDVGVYFCSQSSHVPPTFGQGTKLEIK
notes: Tested as IgG; also called hLL1 heavy chain with hzLL1-Vk1a light chain
Turning to B4, in the assay with soluble cyno CD74 (cyno), the Kd is 5.7 nM, the koff came to 0.00058 s⁻¹ and the on-rate constant (kon) was determined as 100000 M⁻¹ s⁻¹. In the assay with soluble human CD74, the Kd worked out at 0.85 nM, the koff worked out at 0.00018 s⁻¹ and the kon was 210000 M⁻¹ s⁻¹.

B5: Mil_HCx hzVk1b (antibody, V domains shown)
VH: QVQLQQSGSELKKPGASVKVSCKASGYTFTNYGVNWIKQAPGQGLQWMGWINPNTGEPTFDDDFKGRFAFSLDTSVSTAYLQISSLKADDTAVYFCSRSRGKNEAWFAYWGQGTLVTVSS
VL: DVVMTQSPLSLPVTLGQPASISCRSSQSLVHRNGNTYLHWYQQRPGQSPRLLIYTVSNRFSGVPDRFSGSGSGTDFTLKISRVEAEDVGVYFCSQSSHVPPTFGQGTKLEIK
notes: Tested as IgG; also called hLL1 heavy chain with hzLL1-Vk1b light chain
For the molecule B5, in the assay with soluble cyno CD74 (cyno), the Kd is 5.1 nM, the off-rate (koff) is 0.00058 s⁻¹ and the kon turned out to be 110000 M⁻¹ s⁻¹. In addition, in the assay with soluble human CD74, the Kd was found to be 0.72 nM, the koff was found to be 0.00017 s⁻¹ and the kon was found to be 230000 M⁻¹ s⁻¹.

B6: Hcmil x LCmil_NQ (antibody, V domains shown)
VH: QVQLQQSGSELKKPGASVKVSCKASGYTFTNYGVNWIKQAPGQGLQWMGWINPNTGEPTFDDDFKGRFAFSLDTSVSTAYLQISSLKADDTAVYFCSRSRGKNEAWFAYWGQGTLVTVSS
VL: DIQLTQSPLSLPVTLGQPASISCRSSQSLVHRNQNTYLHWFQQRPGQSPRLLIYTVSNRFSGVPDRFSGSGSGTDFTLKISRVEAEDVGVYFCSQSSHVPPTFGAGTRLEIK
notes: Tested as IgG; also called hLL1 heavy chain with hLL1 (NQ) light chain
Turning to B6, in the assay with soluble cyno CD74 (cyno), the Kd was found to be 26 nM, the dissociation rate constant (koff) is 0.00077 s⁻¹ and the kon came out at 30000 M⁻¹ s⁻¹. For the same molecule, in the assay with soluble human CD74, the Kd came to 3.4 nM, the off-rate (koff) came to 0.00033 s⁻¹ and the kon turned out to be 96000 M⁻¹ s⁻¹.
